The source of these data is publication PMC8798132.

This assay concerns the target HLA-DPB1 (from the recombinant plasmid pEGFP-N2-HLA-DPB1, expressed in 293T cells) (human) (UniProt P04440). In words: flow cytometry on cells. (A flow cytometer gives signals particle by particle.)
Chain of UniProt P04440 (P04440 30-225): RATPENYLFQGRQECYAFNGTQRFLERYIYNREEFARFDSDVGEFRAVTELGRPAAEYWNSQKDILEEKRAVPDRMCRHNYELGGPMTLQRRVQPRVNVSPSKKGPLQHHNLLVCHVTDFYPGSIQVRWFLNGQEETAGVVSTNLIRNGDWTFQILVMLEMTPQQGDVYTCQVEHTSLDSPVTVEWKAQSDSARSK

As to “gp42/gHgL complex protein (from UniProt P03205 33-223; P03231 19-706; P03212 23-137)”, the HLA-DP+ gp42+ cells (%) at 20 ug gp42 protein was determined as 12.4%; the HLA-DP+ gp42+ cells (%) at 40 ug gp42 protein worked out at 18.4%; the HLA-DP+ gp42+ cells (%) at 80 ug gp42 protein stood at 27.1%; the HLA-DPB1+ gp42+ cells (%), HLA-DPB1 recombinant plasmid group stood at 28.9%. For the same substance, the gp42+ cells (%) at 20 ug gp42 protein was determined as 14%; the gp42+ cells (%) at 40 ug gp42 protein stood at 20.1%; the gp42+ cells (%) at 80 ug gp42 protein came to 29.3%; the gp42+ cells (%), HLA-DPB1 recombinant plasmid group worked out at 28.6%.
